In paper doi:10.1101/2022.06.05.494914:

Target: PTH 1 receptor (PTH1R), his-tagged (UniProt Q03431)
Assay: BLI

Sequence of UniProt Q03431 (Q03431 27-593): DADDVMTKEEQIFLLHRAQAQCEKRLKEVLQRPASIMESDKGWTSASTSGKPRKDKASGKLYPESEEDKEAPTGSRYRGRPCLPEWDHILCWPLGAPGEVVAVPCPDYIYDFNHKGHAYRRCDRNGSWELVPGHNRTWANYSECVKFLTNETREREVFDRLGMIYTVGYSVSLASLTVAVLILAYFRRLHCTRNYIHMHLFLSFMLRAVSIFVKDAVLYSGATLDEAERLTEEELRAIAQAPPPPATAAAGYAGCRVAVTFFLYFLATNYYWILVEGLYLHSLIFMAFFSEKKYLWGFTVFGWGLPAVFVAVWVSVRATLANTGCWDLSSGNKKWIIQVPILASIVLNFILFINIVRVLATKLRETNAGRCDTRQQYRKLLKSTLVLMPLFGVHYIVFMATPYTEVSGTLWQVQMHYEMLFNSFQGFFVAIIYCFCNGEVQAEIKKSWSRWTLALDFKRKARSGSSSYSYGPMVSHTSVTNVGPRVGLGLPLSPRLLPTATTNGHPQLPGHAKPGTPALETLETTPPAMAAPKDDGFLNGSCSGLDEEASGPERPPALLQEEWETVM

Kd	Substance
2.31 µM	Parathyroid Hormone PTH (1-34) (peptide)
2.3 µM	PTH-Fc fusion protein
